US20110059078A1 (AstraZeneca / MedImmune, published 2011)
Values belong to the molecule of their own block, whether it stands above or below them.

How the values were obtained:
[1] = molecular target: human interferon alpha receptor 1 (IFNAR1), on cells (human) (UniProt P17181); assay: cell-based or functional assay
ovalbumin [2] = molecular target: T1, ovalbumin (UniProt P01012 2-386); assay: BIAcore, ovalbumin control, antibody at 333 nM, reference-subtracted
T1 construct: Control protein; also called soluble ovalbumin
T1 sequence (looked up): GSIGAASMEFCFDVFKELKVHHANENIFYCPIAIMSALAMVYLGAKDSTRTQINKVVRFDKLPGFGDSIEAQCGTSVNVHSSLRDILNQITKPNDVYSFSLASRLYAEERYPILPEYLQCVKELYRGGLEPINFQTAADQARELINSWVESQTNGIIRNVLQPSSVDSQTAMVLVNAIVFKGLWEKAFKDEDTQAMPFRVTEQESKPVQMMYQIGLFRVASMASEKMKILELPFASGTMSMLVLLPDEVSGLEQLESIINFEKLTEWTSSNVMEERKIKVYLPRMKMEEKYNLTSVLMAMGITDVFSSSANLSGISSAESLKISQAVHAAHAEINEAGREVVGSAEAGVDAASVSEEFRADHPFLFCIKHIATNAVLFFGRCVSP
Experimental: All experiments were performed on a BIAcore 3000 instrument (BIAcore, Inc., Uppsala, Sweden). […] Separately, a blank surface was also prepared on each chip using the identical protocol, minus the protein. This blank surface was used as a reference cell throughout the experiment, and served to correct for both non-specific binding and certain housekeeping artifacts.

[3] = molecular target: T2, human interferon alpha receptor 1 (IFNAR1), on cells (human, UniProt P17181 28-557); assay: europium-labelled antibody binding to HEK 293F cells, Kd from binding curves (GraphPad Prism)
T2 construct: whole, on cells; For PBMCs, monocytes and THP-1 cells it names only the cells
T2 sequence (looked up): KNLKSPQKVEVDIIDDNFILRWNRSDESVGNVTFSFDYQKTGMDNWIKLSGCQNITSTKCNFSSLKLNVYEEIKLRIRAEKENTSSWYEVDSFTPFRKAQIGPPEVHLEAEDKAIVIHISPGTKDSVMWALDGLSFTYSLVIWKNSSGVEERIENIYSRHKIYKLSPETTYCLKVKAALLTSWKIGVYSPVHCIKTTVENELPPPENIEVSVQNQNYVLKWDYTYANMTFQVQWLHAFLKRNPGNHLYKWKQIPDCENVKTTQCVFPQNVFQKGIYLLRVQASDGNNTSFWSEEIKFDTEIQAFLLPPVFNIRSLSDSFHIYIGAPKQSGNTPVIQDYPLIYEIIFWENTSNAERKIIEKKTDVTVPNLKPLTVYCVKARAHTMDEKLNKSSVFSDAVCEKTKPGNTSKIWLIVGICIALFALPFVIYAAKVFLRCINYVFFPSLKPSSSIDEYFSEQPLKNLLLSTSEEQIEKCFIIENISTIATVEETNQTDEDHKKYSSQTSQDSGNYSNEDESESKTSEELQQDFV
Experimental: Methods: 200,000 HEK 293F cells were seeded in a round bottom, 96-well plate using 50 μL RPMI 1640 media supplemented with 10% FBS. […] 25 μL of europium conjugated, serially diluted antibody was then added to appropriate wells and cells and antibodies were agitated gently at room temperature for 1-2 hours. After binding incubation, 150 μL of cell media was added to all wells and plates were spun at 1200 rpm for 5 minutes at room temperature. Plates were quickly decanted and 250 μL cell media was added to all wells. Spins and washes were repeated for a total of 3 washes. Cells were then resuspended in 100 μL cell media. 50 μL of resuspended cells were transferred to 200 μL of DELPHIA enhancement solution (PerkinElmer) in a DELPHIA yellow microtiter plate and Europium emission was measured on a Victor2 Multilabel reader (PerkinElmer). Signal was measured in cps and Kd values and Bₘₐₓ values were generated using GraphPad Prism 4 analysis software.

[4] = molecular target: T2, human interferon alpha receptor 1 …; assay: cell-based or functional assay
ovalbumin [5] = molecular target: T1, ovalbumin; assay: BIAcore, control surface, FcγRI injected at 20 nM, reference-subtracted
Experimental: Methods: All experiments were performed on a BIAcore 3000 instrument (BIAcore, Inc., Uppsala, Sweden). In a typical experiment 1 μM solutions of 9D4 IgGs were used to immobilize anywhere from ˜7000 RUs−˜11,000 RUs of protein onto CM5 sensor chip surfaces using a standard amino coupling protocol (BIAcore, Inc.). Separately, a blank surface was also prepared on each chip using the identical protocol, minus the protein. This blank surface was used as a reference cell throughout the experiment, and served to correct for both non-specific binding and certain housekeeping artifacts.

[6] = molecular target: T2, human interferon alpha receptor 1 …; assay: cell-based or functional assay; remark: listed apart in the source
[7] = molecular target: T3, FcγRIIIA variant 158V (high affinity) with Flag tag (UniProt P08637 17-208); assay: ELISA, antibody coated on the plate at 50 µg/ml, Flag-tagged FcγRIIIA titrated, biotin anti-Flag and avidin-HRP
T3 construct: also called FcγRIIIA-10 158V; not shown: Flag tag
T3 sequence (P08637 other isoform, or with tags, fused parts or gaps mutant): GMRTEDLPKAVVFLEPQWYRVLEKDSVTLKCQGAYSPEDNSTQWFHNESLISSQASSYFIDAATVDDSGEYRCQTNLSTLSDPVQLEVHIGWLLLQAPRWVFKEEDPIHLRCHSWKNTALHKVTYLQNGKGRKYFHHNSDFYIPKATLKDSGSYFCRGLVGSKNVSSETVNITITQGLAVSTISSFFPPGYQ
Experimental: (§1) The plate was washed one hour later and incubated with biotin conjugated anti Flag antibody (Sigma) at 2 μg/ml. After washing 25 μl of HRP conjugated Avidin was added to each well. The unbound materials were removed by washing one hour after incubation. The binding signal was detected with the substrate TMB.

[8] = molecular target: T4, FcγRIIIA variant 158F (low affinity) with Flag tag (UniProt P08637 17-208, limits assumed); assay: as above
T4 construct: not shown: Flag tag
T4 sequence (P08637 17-208 limits assumed, change not shown): as the sequence (P08637 other isoform, or with tags, fused parts or gaps mutant) above, with V160F counted along it
Experimental: as §1

[9] = molecular target: T2, human interferon alpha receptor 1 …; assay: IHC of human monocytes with biotinylated antibody
Experimental: Human Monocytes: A cell suspension was smeared/spotted directly onto slides. The slides were allowed to dry overnight and then soaked in Acetone for 10 min and allowed to air dry. Prior to use, slides were dipped into 10% neutral buffered formalin for 10 secs and washed 3× in buffer (1×TBS with 0.01% Tween20).
Slide staining: After washing in buffer, slides were treated to quench endogenous peroxidases by treatment with a solution of Glucose Oxidase (1 U/ml, Sigma G0543), B-D(+) Glucose (10 mM, Sigma G5250), Sodium Azide (1 mM, Sigma, S8032) for 1 hour at room temperature. Slides were then rinsed in wash buffer (1×TBS with 0.01% Tween 20). Slides were placed in a protein block solution (1×PBS pH7.2, 0.5% casein(N-Z amine, Sigma CO626), 1% BSA (Sigma A7906), 1.5% Normal Goat serum (Jackson Labs #005-000-001) for 30 min at room temperature. Biotinylated antibody (see above) was applied to the slides by dilution into the protein block solution. Incubation of the slides with the biotinylated antibody was performed at room temperature for 2 hours. Slides were rinsed 3× in wash buffer (1×TBS, 0.01% Tween 20). Antibody detection was performed using a Vectastain Kit (Vector Laboratories). Slides were washed and counterstained with hematoxylin. Slides were dehydrated and mounted with coverslips prior to viewing.

binding result (ovalbumin [5]): no binding
B3: human FcγRI (CD64) (receptor, UniProt P12314 16-288, looked up)
chain: QVDTTKAVITLQPPWVSVFQEETVTLHCEVLHLPGSSSTQWFLNGTATQTSTPSYRITSASVNDSGEYRCQRGLSGRSDPIQLEIHRGWLLLQVSSRVFTEGEPLALRCHAWKDKLVYNVLYYRNGKAFKFFHWNSNLTILKTNISHNGTYHCSGMGKHRYTSAGISVTVKELFPAPVLNASVTSPLLEGNLVTLSCETKLLLQRPGLQLYFSFYMGSKTLRGRNTSSEYQILTARREDSGLYWCEAATEDGNVLKRSPELELQVLGLQLPTP

binding result (ovalbumin [2]): no binding
Kd [3]: 0.03 nM
IC50, HiL3 ISRE-luciferase reporter assay, neutralization of Human Leukocyte IFN [4]: 0.0212 µg/mL
IC50, HiL3 ISRE-luciferase reporter assay, neutralization of IFNα 2b [4]: 0.000828 µg/mL
IC50, HiL3 ISRE-luciferase reporter assay, neutralization of IFNα10 [4]: 0.00429 µg/mL
IC50, HiL3 ISRE-luciferase reporter assay, neutralization of IFNβ [4]: 0.261 µg/mL
IC50, HiL3 ISRE-luciferase reporter assay, neutralization of IFNω [4]: 0.0142 µg/mL
IC50, PIL-5 ISRE luciferase reporter assay, neutralization of Type I interferons in SLE patient plasma [4]: 0.04 nM
IC50, inhibition of SLE plasma induced CD38 and CD123 expression on human monocytes (flow cytometry) [4]: 0.02 to 0.06 nM
IC50, luciferase reporter assay, Leukocyte IFN signaling [4]: 0.02 nM
IC50, suppression of CD38 expression on cells stimulated with leukocyte-IFN [4]: 0.025 µg/mL
IC50, suppression of CD86 expression on cells stimulated with leukocyte-IFN [4]: 0.026 µg/mL
IC50, suppression of CD123 expression on cells stimulated with leukocyte-IFN [4]: 0.01 µg/mL
IC50, luciferase reporter assay, inhibition of IFN-α1 activity [6]: 0.004 nM
IC50, luciferase reporter assay, inhibition of IFN-α2b activity [6]: 0.07 nM
IC50, luciferase reporter assay, inhibition of IFN-α4b activity [6]: 0.02 nM
IC50, luciferase reporter assay, inhibition of IFN-α6 activity [6]: 0.04 nM
IC50, luciferase reporter assay, inhibition of IFN-α7 activity [6]: 0.04 nM
IC50, luciferase reporter assay, inhibition of IFN-α8 activity [6]: 0.03 nM
IC50, luciferase reporter assay, inhibition of IFN-α10 activity [6]: 0.01 nM
IC50, luciferase reporter assay, inhibition of IFN-α14 activity [6]: 0.02 nM
IC50, luciferase reporter assay, inhibition of IFN-α16 activity [6]: 0.02 nM
IC50, luciferase reporter assay, inhibition of IFN-α17 activity [6]: 0.04 nM
IC50, luciferase reporter assay, inhibition of IFN-α21 activity [6]: 0.01 nM
IC50, luciferase reporter assay, inhibition of IFN-β1 activity [6]: 6.8 nM
IC50, luciferase reporter assay, inhibition of IFN-ω activity [6]: 0.1 nM
IC50, luciferase reporter assay, inhibition of Leukocyte Interferon activity [6]: 0.01 nM
B4: modified anti-IFNAR1 antibody 9D4-TM (Triple Mutant) (antibody)
VH: EVQLVQSGAEVKKPGESLKISCKGSGYIFTNYWIAWVRQMPGKGLESMGIIYPGDSDIRYSPSFQGQVTISADKSITTAYLQWSSLKASDTAMYYCARHDIEGFDYWGRGTLVTVSSASTKGPSVFPLAPSSKSTSGGTAALGCLVKDYFPEPVTVSWNSGALTSGVHTFPAVLQSSGLYSLSSVVTVPSSSLGTQTYICNVNHKPSNTKVDKRVEPKSCDKTHTCPPCPAPEFEGGPSVFLFPPKPKDTLMISRTPEVTCVVVDVSHEDPEVKFNWYVDGVEVHNAKTKPREEQYNSTYRVVSVLTVLHQDWLNGKEYKCKVSNKALPASIEKTISKAKGQPREPQVYTLPPSREEMTKNQVSLTCLVKGFYPSDIAVEWESNGQPENNYKTTPPVLDSDGSFFLYSKLTVDKSRWQQGNVFSCSVMHEALHNHYTQKSLSLSPGK
VL: EIVLTQSPGTLSLSPGERATLSCRASQSVSSSFFAWYQQKPGQAPRLLIYGASSRATGIPDRLSGSGSGTDFTLTITRLEPEDFAVYYCQQYDSSAITFGQGTRLEIKRTVAAPSVFIFPPSDEQLKSGTASVVCLLNNFYPREAKVQWKVDNALQSGNSQESVTEQDSKDSTYSLSSTLTLSKADYEKHKVYACEVTHQGLSSPVTKSFNRGEC
notes: Labelled with europium, Alexa647 or biotin in some assays; also called 9D-TM; Alexa647-9D4-TM; copies: 2 + 2
binding result [7]: no binding (tested: 4.7 Log ng/ml (50 µg/ml by paragraph 350))
binding result [8]: no binding (tested: 4.7 Log ng/ml (50 µg/ml by paragraph 350))

Second part, the molecule before the results:

Molecule: anti-IFNAR1 antibody MDX-1333
IC50, HiL3 ISRE-luciferase reporter assay, neutralization of Human Leukocyte IFN [1]: 1.12 µg/mL
IC50, HiL3 ISRE-luciferase reporter assay, neutralization of IFNα 2b [1]: 0.000646 µg/mL
IC50, HiL3 ISRE-luciferase reporter assay, neutralization of IFNα10 [1]: 0.0988 µg/mL
IC50, HiL3 ISRE-luciferase reporter assay, neutralization of IFNβ [1]: 19 µg/mL
IC50, HiL3 ISRE-luciferase reporter assay, neutralization of IFNω [1]: 5.32 µg/mL
IC50, luciferase reporter assay, Leukocyte IFN signaling [1]: 0.04 nM

B1: anti-IFNAR1 antibody 9D4 (parental, unmodified) (antibody, V domains shown)
VH: EVQLVQSGAEVKKPGESLKISCKGSGYIFTNYWIAWVRQMPGKGLESMGIIYPGDSDIRYSPSFQGQVTISADKSITTAYLQWSSLKASDTAMYYCARHDIEGFDYWGRGTLVTVSS
VL: EIVLTQSPGTLSLSPGERATLSCRASQSVSSSFFAWYQQKPGQAPRLLIYGASSRATGIPDRLSGSGSGTDFTLTITRLEPEDFAVYYCQQYDSSAITFGQGTRLEIK
notes: Whole IgG with unmodified Fc; the TM variant was engineered on human IgG1 and IgG1 isotype controls were used; Biotinylated in some ELISAs; also called 9D4-WT; 9D4WT
binding result (ovalbumin [2]): no binding
Kd [3]: 0.06 nM
IC50, HiL3 ISRE-luciferase reporter assay, neutralization of Human Leukocyte IFN [4]: 0.021 µg/mL
IC50, HiL3 ISRE-luciferase reporter assay, neutralization of IFNα 2b [4]: 0.00279 µg/mL
IC50, HiL3 ISRE-luciferase reporter assay, neutralization of IFNα10 [4]: 0.00834 µg/mL
IC50, HiL3 ISRE-luciferase reporter assay, neutralization of IFNβ [4]: 0.74 µg/mL
IC50, HiL3 ISRE-luciferase reporter assay, neutralization of IFNω [4]: 0.0101 µg/mL
IC50, luciferase reporter assay, Leukocyte IFN signaling [4]: 0.01 nM
IC50, suppression of CD38 expression on cells stimulated with leukocyte-IFN [4]: 0.0043 µg/mL
IC50, suppression of CD86 expression on cells stimulated with leukocyte-IFN [4]: 0.02 µg/mL
IC50, suppression of CD123 expression on cells stimulated with leukocyte-IFN [4]: 0.007 µg/mL

B2: modified anti-IFNAR1 antibody 9D4-DM (Double Mutant) (antibody, human IgG4, V domains shown)
VH: B1 VH
VL: B1 VL
notes: Biotinylated in some ELISAs
Kd [3]: 0.06 nM
IC50, luciferase reporter assay, Leukocyte IFN signaling [4]: 0.01 nM
IC50, suppression of CD38 expression on cells stimulated with leukocyte-IFN [4]: 0.04 µg/mL
IC50, suppression of CD86 expression on cells stimulated with leukocyte-IFN [4]: 0.02 µg/mL
IC50, suppression of CD123 expression on cells stimulated with leukocyte-IFN [4]: 0.021 µg/mL

B5: anti-IFNAR1 antibody 4G5 (antibody, V domains shown)
VH: QVQLQQWGAGLLKPSETLSLTCAVYGGSFSNYYWSWIRQPPGKGLEWIGEIILSGSTNYNPSLKSRVTISVDTSKNQFSLNLTSVTAADTAVYYCARESKWGYYFDSWGQGTLVTVSS
VL: AIQLTQSPSSLSASVGDRVTITCRATQDISIALVWYQQKPGKAPELLIYDASGLGSGVPSRFSGSGSGTDFTLTISSLQPEDFATYYCQQFNSYPYTFGQGTKLEIK
notes: Biotinylated for IHC
binding result [9]: binds
